Target: human CD3, on primary human T cells (human) (UniProt P07766)
Assay: cell-based or functional assay

Sequence of human CD3, on primary human T cells (human) (P07766 23-207 limits assumed): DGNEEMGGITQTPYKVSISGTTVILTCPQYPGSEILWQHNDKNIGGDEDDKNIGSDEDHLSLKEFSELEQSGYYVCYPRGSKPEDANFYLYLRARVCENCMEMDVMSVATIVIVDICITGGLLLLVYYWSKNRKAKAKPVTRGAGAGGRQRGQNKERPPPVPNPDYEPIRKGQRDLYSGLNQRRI

PGT-121.60 (antibody)
CD25 EC50; CD4 T cells; donor D1597; 7552-infected CEM cells: > 100 µg/mL | CD25 EC50; CD4 T cells; donor D1597; THRO-infected CEM cells: > 100 µg/mL | CD25 EC50; CD4 T cells; donor D1597; uninfected CEM cells: > 100 µg/mL | CD25 EC50; CD4 T cells; donor D2256; 7552-infected CEM cells: > 100 µg/mL | CD25 EC50; CD4 T cells; donor D2256; THRO-infected CEM cells: > 100 µg/mL | CD25 EC50; CD4 T cells; donor D2256; uninfected CEM cells: > 100 µg/mL | CD25 EC50; CD4 T cells; donor D4246; 7552-infected CEM cells: > 100 µg/mL | CD25 EC50; CD4 T cells; donor D4246; THRO-infected CEM cells: > 100 µg/mL | CD25 EC50; CD4 T cells; donor D4246; uninfected CEM cells: > 100 µg/mL | CD25 EC50; CD4 T cells; donor D4279; 7552-infected CEM cells: > 100 µg/mL | CD25 EC50; CD4 T cells; donor D4279; THRO-infected CEM cells: > 100 µg/mL | CD25 EC50; CD4 T cells; donor D4279; uninfected CEM cells: > 100 µg/mL | CD25 EC50; CD8 T cells; donor D1597; 7552-infected CEM cells: > 100 µg/mL | CD25 EC50; CD8 T cells; donor D1597; THRO-infected CEM cells: > 100 µg/mL | CD25 EC50; CD8 T cells; donor D1597; uninfected CEM cells: > 100 µg/mL | CD25 EC50; CD8 T cells; donor D2256; 7552-infected CEM cells: > 100 µg/mL | CD25 EC50; CD8 T cells; donor D2256; THRO-infected CEM cells: > 100 µg/mL | CD25 EC50; CD8 T cells; donor D2256; uninfected CEM cells: > 100 µg/mL | CD25 EC50; CD8 T cells; donor D4246; 7552-infected CEM cells: > 100 µg/mL | CD25 EC50; CD8 T cells; donor D4246; THRO-infected CEM cells: > 100 µg/mL | CD25 EC50; CD8 T cells; donor D4246; uninfected CEM cells: > 100 µg/mL | CD25 EC50; CD8 T cells; donor D4279; 7552-infected CEM cells: > 100 µg/mL | CD25 EC50; CD8 T cells; donor D4279; THRO-infected CEM cells: > 100 µg/mL | CD25 EC50; CD8 T cells; donor D4279; uninfected CEM cells: > 100 µg/mL | CD25 Δ Emax; CD4 T cells; donor D1597; 7552-infected CEM cells: 0% | CD25 Δ Emax; CD4 T cells; donor D1597; THRO-infected CEM cells: -2% | CD25 Δ Emax; CD4 T cells; donor D1597; uninfected CEM cells: 3% | CD25 Δ Emax; CD4 T cells; donor D2256; 7552-infected CEM cells: 2% | CD25 Δ Emax; CD4 T cells; donor D2256; THRO-infected CEM cells: -1% | CD25 Δ Emax; CD4 T cells; donor D2256; uninfected CEM cells: -1% | CD25 Δ Emax; CD4 T cells; donor D4246; 7552-infected CEM cells: -2% | CD25 Δ Emax; CD4 T cells; donor D4246; THRO-infected CEM cells: -2% | CD25 Δ Emax; CD4 T cells; donor D4246; uninfected CEM cells: 0% | CD25 Δ Emax; CD4 T cells; donor D4279; 7552-infected CEM cells: -1% | CD25 Δ Emax; CD4 T cells; donor D4279; THRO-infected CEM cells: -2% | CD25 Δ Emax; CD4 T cells; donor D4279; uninfected CEM cells: 0% | CD25 Δ Emax; CD8 T cells; donor D1597; 7552-infected CEM cells: -1% | CD25 Δ Emax; CD8 T cells; donor D1597; THRO-infected CEM cells: 0% | CD25 Δ Emax; CD8 T cells; donor D1597; uninfected CEM cells: 0% | CD25 Δ Emax; CD8 T cells; donor D2256; 7552-infected CEM cells: 0% | CD25 Δ Emax; CD8 T cells; donor D2256; THRO-infected CEM cells: -1% | CD25 Δ Emax; CD8 T cells; donor D2256; uninfected CEM cells: 0% | CD25 Δ Emax; CD8 T cells; donor D4246; 7552-infected CEM cells: 1% | CD25 Δ Emax; CD8 T cells; donor D4246; THRO-infected CEM cells: 0% | CD25 Δ Emax; CD8 T cells; donor D4246; uninfected CEM cells: 0% | CD25 Δ Emax; CD8 T cells; donor D4279; 7552-infected CEM cells: 0% | CD25 Δ Emax; CD8 T cells; donor D4279; THRO-infected CEM cells: 1% | CD25 Δ Emax; CD8 T cells; donor D4279; uninfected CEM cells: 0% | CD69 EC50; CD4 T cells; donor D1597; 7552-infected CEM cells: > 100 µg/mL | CD69 EC50; CD4 T cells; donor D1597; THRO-infected CEM cells: > 100 µg/mL | CD69 EC50; CD4 T cells; donor D1597; uninfected CEM cells: > 100 µg/mL | CD69 EC50; CD4 T cells; donor D2256; 7552-infected CEM cells: > 100 µg/mL | CD69 EC50; CD4 T cells; donor D2256; THRO-infected CEM cells: > 100 µg/mL | CD69 EC50; CD4 T cells; donor D2256; uninfected CEM cells: > 100 µg/mL | CD69 EC50; CD4 T cells; donor D4246; 7552-infected CEM cells: > 100 µg/mL | CD69 EC50; CD4 T cells; donor D4246; THRO-infected CEM cells: > 100 µg/mL | CD69 EC50; CD4 T cells; donor D4246; uninfected CEM cells: > 100 µg/mL | CD69 EC50; CD4 T cells; donor D4279; 7552-infected CEM cells: > 100 µg/mL | CD69 EC50; CD4 T cells; donor D4279; THRO-infected CEM cells: > 100 µg/mL | CD69 EC50; CD4 T cells; donor D4279; uninfected CEM cells: > 100 µg/mL | CD69 EC50; CD8 T cells; donor D1597; 7552-infected CEM cells: > 100 µg/mL | CD69 EC50; CD8 T cells; donor D1597; THRO-infected CEM cells: > 100 µg/mL | CD69 EC50; CD8 T cells; donor D1597; uninfected CEM cells: > 100 µg/mL | CD69 EC50; CD8 T cells; donor D2256; 7552-infected CEM cells: > 100 µg/mL | CD69 EC50; CD8 T cells; donor D2256; THRO-infected CEM cells: > 100 µg/mL | CD69 EC50; CD8 T cells; donor D2256; uninfected CEM cells: > 100 µg/mL | CD69 EC50; CD8 T cells; donor D4246; 7552-infected CEM cells: > 100 µg/mL | CD69 EC50; CD8 T cells; donor D4246; THRO-infected CEM cells: > 100 µg/mL | CD69 EC50; CD8 T cells; donor D4246; uninfected CEM cells: > 100 µg/mL | CD69 EC50; CD8 T cells; donor D4279; 7552-infected CEM cells: > 100 µg/mL | CD69 EC50; CD8 T cells; donor D4279; THRO-infected CEM cells: > 100 µg/mL | CD69 EC50; CD8 T cells; donor D4279; uninfected CEM cells: > 100 µg/mL | CD69 Δ Emax; CD4 T cells; donor D1597; 7552-infected CEM cells: 0% | CD69 Δ Emax; CD4 T cells; donor D1597; THRO-infected CEM cells: 0% | CD69 Δ Emax; CD4 T cells; donor D1597; uninfected CEM cells: 1% | CD69 Δ Emax; CD4 T cells; donor D2256; 7552-infected CEM cells: 0% | CD69 Δ Emax; CD4 T cells; donor D2256; THRO-infected CEM cells: 0% | CD69 Δ Emax; CD4 T cells; donor D2256; uninfected CEM cells: 0% | CD69 Δ Emax; CD4 T cells; donor D4246; 7552-infected CEM cells: 3% | CD69 Δ Emax; CD4 T cells; donor D4246; THRO-infected CEM cells: 1% | CD69 Δ Emax; CD4 T cells; donor D4246; uninfected CEM cells: -1% | CD69 Δ Emax; CD4 T cells; donor D4279; 7552-infected CEM cells: 3% | CD69 Δ Emax; CD4 T cells; donor D4279; THRO-infected CEM cells: 0% | CD69 Δ Emax; CD4 T cells; donor D4279; uninfected CEM cells: 0% | CD69 Δ Emax; CD8 T cells; donor D1597; 7552-infected CEM cells: 0% | CD69 Δ Emax; CD8 T cells; donor D1597; THRO-infected CEM cells: 0% | CD69 Δ Emax; CD8 T cells; donor D1597; uninfected CEM cells: 0% | CD69 Δ Emax; CD8 T cells; donor D2256; 7552-infected CEM cells: 0% | CD69 Δ Emax; CD8 T cells; donor D2256; THRO-infected CEM cells: 0% | CD69 Δ Emax; CD8 T cells; donor D2256; uninfected CEM cells: 0% | CD69 Δ Emax; CD8 T cells; donor D4246; 7552-infected CEM cells: 0% | CD69 Δ Emax; CD8 T cells; donor D4246; THRO-infected CEM cells: 0% | CD69 Δ Emax; CD8 T cells; donor D4246; uninfected CEM cells: 0% | CD69 Δ Emax; CD8 T cells; donor D4279; 7552-infected CEM cells: -4% | CD69 Δ Emax; CD8 T cells; donor D4279; THRO-infected CEM cells: 0% | CD69 Δ Emax; CD8 T cells; donor D4279; uninfected CEM cells: 0%

From patent US20180371086A1
